# Results from US20240189439A1 (Novartis, published 2024).
# T1: cyno PMEL17 (cyno, UniProt A0A2K5WWN0 25-668)
# T1 construct: whole, on cells; also called HKB11-cyno; HKB11-cyno-PMEL17
# T1 sequence: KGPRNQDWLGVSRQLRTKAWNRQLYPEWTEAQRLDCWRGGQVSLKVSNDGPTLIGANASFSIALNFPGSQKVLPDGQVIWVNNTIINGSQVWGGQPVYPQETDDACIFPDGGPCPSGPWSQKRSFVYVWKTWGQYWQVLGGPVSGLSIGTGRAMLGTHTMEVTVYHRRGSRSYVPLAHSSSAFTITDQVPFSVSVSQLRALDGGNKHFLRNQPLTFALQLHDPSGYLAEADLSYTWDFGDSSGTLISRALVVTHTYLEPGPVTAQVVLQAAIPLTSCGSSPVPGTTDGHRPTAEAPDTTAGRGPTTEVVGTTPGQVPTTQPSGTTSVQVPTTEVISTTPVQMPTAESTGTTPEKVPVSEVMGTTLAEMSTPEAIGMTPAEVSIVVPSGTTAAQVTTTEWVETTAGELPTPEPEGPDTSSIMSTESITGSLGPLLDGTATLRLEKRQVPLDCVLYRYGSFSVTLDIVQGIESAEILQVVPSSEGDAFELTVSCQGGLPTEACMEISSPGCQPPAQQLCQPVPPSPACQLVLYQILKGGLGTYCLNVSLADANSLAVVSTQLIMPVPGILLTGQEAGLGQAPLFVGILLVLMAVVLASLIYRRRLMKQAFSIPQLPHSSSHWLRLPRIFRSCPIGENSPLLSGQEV
# T2: mouse PMEL17 (mouse, UniProt Q60696 24-626)
# T2 construct: whole, on cells; also called B16-F10 (mouse)
# T2 sequence (looked up): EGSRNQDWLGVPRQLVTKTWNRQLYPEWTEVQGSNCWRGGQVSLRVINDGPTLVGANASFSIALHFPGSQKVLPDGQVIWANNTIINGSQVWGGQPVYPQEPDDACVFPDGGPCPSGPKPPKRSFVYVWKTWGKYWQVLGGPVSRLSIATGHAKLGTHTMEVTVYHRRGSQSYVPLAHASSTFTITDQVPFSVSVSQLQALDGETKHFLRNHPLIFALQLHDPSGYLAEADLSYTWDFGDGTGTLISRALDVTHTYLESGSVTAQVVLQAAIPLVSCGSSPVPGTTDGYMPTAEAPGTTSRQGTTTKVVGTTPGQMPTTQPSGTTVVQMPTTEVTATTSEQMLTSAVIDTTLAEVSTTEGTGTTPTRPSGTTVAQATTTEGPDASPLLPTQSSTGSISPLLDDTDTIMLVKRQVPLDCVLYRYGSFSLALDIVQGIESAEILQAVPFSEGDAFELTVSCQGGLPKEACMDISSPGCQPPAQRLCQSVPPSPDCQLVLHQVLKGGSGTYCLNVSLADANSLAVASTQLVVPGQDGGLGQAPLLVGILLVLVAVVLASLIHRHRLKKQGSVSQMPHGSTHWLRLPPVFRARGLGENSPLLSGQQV
# B1: MOR024354 (antibody, V domains shown)
# VH: QVQLLESGGGLVQPGGSLRLSCAASGFTFSSFGMSWVRQAPGKGLEWVSAISYSGSDTYYADSVKGRFTISRDNSKNTLYLQMNSLRAEDTAVYYCARDVGVMDYWGQGTLVTVSS
# VL: SYELTQPLSVSVALGQTARITCSGDNLGTYYAHWYQQKPGQAPVLVIYSQSHRPSGIPERFSGSNSGNTATLTISRAQAGDEADYYCGAWDAPSPELVFGGGTKLTVL
# notes: Tested as purified human IgG
# B2: MOR024353 (antibody, V domains shown)
# VH: QVQLVQSGAEVKKPGSSVKVSCKASGGTFSDYAISWVRQAPGQGLEWMGGIIPIFGDANYAQKFQGRVTITADESTSTAYMELSSLRSEDTAVYYCAREGSSYFYMAYWGQGTLVTVSS
# VL: SYELTQPLSVSVALGQTARITCSGDNIGSKLASWYQQKPGQAPVLVIYDDSNRPSGIPERFSGSNSGNTATLTISRAQAGDEADYYCAATAGDRWAYVFGGGTKLTVL
# notes: Tested as purified human IgG
# B3: Y010906 (antibody, V domains shown)
# VH: EVQLVESGGGLVKPGGSLRLSCAASGFTFSNAWMSWVRQAPGKGLEWVGRIKSKTDAGTTDYAAPVKGRFTISRDDSKNTLYLQMNSLKTEDTAVYYCARDEYPWGWFDVWGQGTLVTVSS
# VL: DIQMTQSPSSVSASVGDRVTITCRASQGISSWLAWYQQKPGKAPKLLIYAASSLQSGVPSRFSGSGSGTDFTLTISSLQPEDFATYYCQQYIFYPLTFGQGTKVEIK
# notes: Tested as purified human IgG
# B4: Y010417 (antibody, V domains shown)
# VH: EVQLVQSGAEVKKPGESLKISCKGSGYSFTSYWIGWVRQMPGKGLEWMGIIYPGDSDTRYSPSFQGQVTISADKSISTAYLQWSSLKASDTAMYYCARGSSAASGLSGDLWGQGTLVTVSS
# VL: DIQMTQSPSSLSASVGDRVTITCRASQSISSYLNWYQQKPGKAPKLLIYAASSLQSGVPSRFSGSGSGTDFTLTISSLQPEDFATYYCQQDYYSPFTFGQGTKVEIK
# notes: Tested as purified human IgG
# B5: Y010910 (antibody, V domains shown)
# VH: EVQLVESGGGLVKPGGSLRLSCAASGFTFSNAWMSWVRQAPGKGLEWVGRIKSKTDAGTTDYAAPVKGRFTISRDDSKNTLYLQMNSLKTEDTAVYYCARVASPSAPGGFDYWGQGTLVTVSS
# VL: DIQMTQSPSSLSASVGDRVTITCRASQGISNYLAWYQQKPGKVPKLLIYAASTLQSGVPSRFSGSGSGTDFTLTISSLQPEDVATYYCQQSLFAPFTFGQGTKVEIK
# notes: Tested as purified human IgG
# B6: Y010415 (antibody, V domains shown)
# VH: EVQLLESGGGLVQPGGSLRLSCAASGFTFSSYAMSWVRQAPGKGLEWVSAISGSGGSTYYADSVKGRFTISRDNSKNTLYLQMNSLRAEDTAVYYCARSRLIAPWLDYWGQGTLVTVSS
# VL: DIQMTQSPSSLSASVGDRVTITCRASQSISSYLNWYQQKPGKAPKLLIYAASSLQSGVPSRFSGSGSGTDFTLTISSLQPEDFATYYCQQVYGSPPTFGQGTKVEIK
# notes: Tested as purified human IgG
# B7: Y010903 (antibody, V domains shown)
# VH: EVQLVESGGGLVKPGGSLRLSCAASGFTFSNAWMSWVRQAPGKGLEWVGRIKSKTDAGTTDYAAPVKGRFTISRDDSKNTLYLQMNSLKTEDTAVYYCARASHRLHSLFDVWGQGTLVTVSS
# VL: DIQMTQSPSTLSASVGDRVTITCRASQSISSWLAWYQQKPGKAPKLLIYDASSLESGVPSRFSGSGSGTEFTLTISSLQPEDFATYYCQQGLFYPHTFGQGTKVEIK
# notes: Tested as purified human IgG
# B8: Y010355 (antibody, V domains shown)
# VH: EVQLVESGGGLVKPGGSLRLSCAASGFTFSNYWISWVRQAPGKGLEWVGRIKSKTYGGTTDYAEPVKGRFTISRDDSKNTLYLQMNSLKTEDTAVYYCARTSRRSYAFDYWGQGTLVTVSS
# VL: DIQMTQSPSTLSASVGDRVTITCRASQSISSWLAWYQQKPGKAPKLLIYDASSLESGVPSRFSGSGSGTEFTLTISSLQPEDFATYYCQQITRYPVTFGQGTKVEIK
# notes: Tested as purified human IgG
# B9: Y010900 (antibody, V domains shown)
# VH: EVQLVESGGGLVKPGGSLRLSCAASGFTFSNAWMSWVRQAPGKGLEWVGRIKSKTDAGTTDYAAPVKGRFTISRDDSKNTLYLQMNSLKTEDTAVYYCARTIYPSAPSSSLDYWGQGTLVTVSS
# VL: DIQMTQSPSSLSASVGDRVTITCRASQGISNYLAWYQQKPGKVPKLLIYAASTLQSGVPSRFSGSGSGTDFTLTISSLQPEDVATYYCQQLIFFPLTFGQGTKVEIK
# notes: Tested as purified human IgG
# B10: Y010429 (antibody, V domains shown)
# VH: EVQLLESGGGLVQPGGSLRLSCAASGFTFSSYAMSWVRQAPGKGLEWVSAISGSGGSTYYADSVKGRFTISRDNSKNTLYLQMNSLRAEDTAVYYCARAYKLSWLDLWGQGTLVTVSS
# VL: DIQMTQSPSSLSASVGDRVTITCRASQSISSYLNWYQQKPGKAPKLLIYAASSLQSGVPSRFSGSGSGTDFTLTISSLQPEDFATYYCQQVWYAPVTFGQGTKVEIK
# notes: Tested as purified human IgG
# B11: Y010356 (antibody, V domains shown)
# VH: EVQLVESGGGLVKPGGSLRLSCAASGFTFSNYWISWVRQAPGKGLEWVGRIKSKTYGGTTDYAEPVKGRFTISRDDSKNTLYLQMNSLKTEDTAVYYCARVSGYYSHSGGFDVWGQGTLVTVSS
# VL: DIQMTQSPSSLSASVGDRVTITCRASQGISNYLAWYQQKPGKVPKLLIYAASTLQSGVPSRFSGSGSGTDFTLTISSLQPEDVATYYCQKTWRTPGTFGQGTKVEIK
# notes: Tested as purified human IgG
# Key:
# cyno PMEL17 = molecular target: T1, cyno PMEL17; test: FACS titration of IgG on HKB11-cyno-PMEL17 cells, Alexa Fluor detection antibody
# Method: (§1) Purified IgGs were titrated on a variety of PMEL17 expressing and PMEL17 non expressing cell lines (for control) to determine EC50 values. Cells were harvested using Accutase, adjusted to ˜4×10^6 cells/ml into FACS buffer (PBS, 3% FCS and 0.02% Na-Azide) and kept on ice to avoid internalization. 15 μl of cell suspension/well were transferred into 384 well V-bottom plates (Greiner, Cat #781280) and incubated with 15 μl of IgGs at different concentrations (most commonly from 200 to 3.5×10-3 nM) for 1 hour at 4° C., gently shaking. Following incubation, cells were washed three times with FACS buffer. After each washing step, cells were centrifuged (250×g, 5 min, 4° C.) and carefully resuspended. 15 p of detection antibody conjugated to PE (PE-conjugated goat anti-human IgG, F(ab′)₂ fragment specific, 1:150 in FACS buffer; Jackson Immuno Research, #109-116-097) or Alexa Fluor (Alexa Fluor-conjugated goat anti-human IgG, F(ab′)2 fragment specific, 1:150 in FACS buffer; Jackson Immuno Research, #109-606-097) were added and samples were incubated for 45 minutes to 1 hour on ice in the dark, gently shaking. After 3 washing steps, cells were resuspended in 30 μl of FACS buffer and samples were measured using the IntelliCyt HTFC device. EC50 values were calculated using the Graphpad Prism software.
# rat PMEL17 = rat PMEL17 (rat, UniProt D3ZED8 73-680); test: FACS titration of IgG on HKB11-rat PMEL17 cells, Alexa Fluor detection antibody
# Chain of rat PMEL17 (D3ZED8 entry or part of it): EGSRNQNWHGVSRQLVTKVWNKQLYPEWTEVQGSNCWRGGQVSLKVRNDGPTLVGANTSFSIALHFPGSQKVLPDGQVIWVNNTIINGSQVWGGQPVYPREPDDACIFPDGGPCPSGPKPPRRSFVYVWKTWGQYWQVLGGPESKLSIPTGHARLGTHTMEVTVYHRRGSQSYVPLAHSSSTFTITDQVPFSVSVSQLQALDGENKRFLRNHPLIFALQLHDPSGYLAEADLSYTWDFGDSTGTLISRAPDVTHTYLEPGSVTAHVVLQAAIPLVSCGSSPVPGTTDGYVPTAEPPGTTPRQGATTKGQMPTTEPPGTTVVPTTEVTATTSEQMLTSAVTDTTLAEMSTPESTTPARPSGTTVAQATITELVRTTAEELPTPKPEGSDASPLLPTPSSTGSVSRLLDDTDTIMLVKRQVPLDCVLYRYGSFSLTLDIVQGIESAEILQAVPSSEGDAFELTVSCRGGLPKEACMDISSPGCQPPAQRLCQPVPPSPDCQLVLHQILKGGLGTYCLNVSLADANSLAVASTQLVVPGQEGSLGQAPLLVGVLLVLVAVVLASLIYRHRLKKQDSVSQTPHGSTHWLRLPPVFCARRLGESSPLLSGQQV
# Method: as §1
# mouse PMEL17 = molecular target: T2, mouse PMEL17; test: FACS titration of IgG on B16-F10 cells (mouse melanoma), Alexa Fluor detection antibody
# Method: as §1
Binder,EC50 (cyno PMEL17),EC50 (rat PMEL17),EC50 (mouse PMEL17)
B1,2.1 nM,2.4 nM,–
B2,1.6 nM,7.5 nM,–
B3,2 nM,21.7 nM,140 nM
B4,6.3 nM,–,–
B5,3.5 nM,13.7 nM,41.1 nM
B6,5.4 nM,0.4 nM,–
B7,2 nM,5.6 nM,928 nM
B8,3.9 nM,0.8 nM,0.8 nM
B9,1.2 nM,9.3 nM,–
B10,10.7 nM,1.5 nM,60.2 nM
B11,4.5 nM,1.4 nM,1.4 nM
